Data from patent US20020068814A1.
Where two headings read alike, the source gives them in different places. No end group written: not given here.

Assays:
[1] = molecular target: CGRP receptor of pig coronary artery (pig); assay: cell-based or functional assay
[2] = molecular target: CGRP receptor of pig coronary artery (pig); assay: displacement of 125I-[His10]-h-αCGRP from pig coronary artery membranes
[3] = molecular target: CGRP receptor of pig coronary artery (pig); assay: as above; remark: listed apart in the source

h-α-CGRP (8-37) (peptide) showed a KB from inhibition of h-α-CGRP-induced relaxation of pig coronary artery rings (Schild analysis) [1] of 970 nM.

In the case of N-α-benzoyl-h-α-CGRP (8-37) (peptide), the IC50 [2] is reported as 0.27 nM.

For N-α-benzyl-h-α-CGRP (8-37) (peptide), the IC50 [2] was 1.58 nM.

Work on dibenzyl-h-α-CGRP(8-37) (peptide) yielded an IC50 [2] of 0.22 nM.

VTHRLAGLLSRSGGMVKSNFVPTNVGSKAF (peptide, UniProt P10092 89-118, looked up, Calcitonin gene-related peptide 2 N,N-dibenzyl) [dibenzyl-h-β-CGRP(8-37)] gave an IC50 [3] of 0.73 nM.

VTHRLAGLLSRSGGMVKSNFVPTNVGSKAF (ends and bridges not checked) [h-β-CGRP (8-37)] showed an IC50 [3] of 20.6 nM.

In the case of VTHRLAGLLSRSGGMVKSNFVPTNVGSKAF (peptide, UniProt P10092 89-118, looked up, Calcitonin gene-related peptide 2 N-alpha-benzyl) [N-α-benzyl-h-β-CGRP (8-37)], the IC50 [3] is reported as 3.62 nM.

VTHRLAGLLSRSGGMVKSNFVPTNVGSKAF (peptide, UniProt P10092 89-118, looked up, Calcitonin gene-related peptide 2 N-alpha-benzoyl) [N-α-benzoyl-h-β-CGRP (8-37)] was tested, and the IC50 [3] was 0.63 nM.
